This note sets out measurements from patent publication US20200188539A1 (CURATORS OF THE UNIVERSITY OF MISSOURI, published 2020).

The target in assay [1] is T1, gastrin-releasing peptide receptor (human (human prostate PC-3 cells), UniProt P30550 1-384).
T1 construct: whole, on cells; Endogenous receptor on PC-3 cells; also called GRPR; GRPr
Briefly: competitive displacement of 125I-(Tyr4)-BBN on GRPR-positive PC-3 cells. Here is the method:
(§1) (NAAG) as the radioligands. For the GRPR-positive assay, 3×10⁴ PC-3 cells (in D-MEM/F-12 K media containing 0.01 M MEM and 2% BSA, pH=5.5) were incubated with 20,000 counts per minute of [¹²⁵I-(Tyr4)-BBN] and increasing concentrations (1×10⁻¹³-1×10⁻⁵ M) of the metallated targeting vector (1 h, 37° C., 5% CO₂-enriched atmosphere). After incubation, the reaction medium was aspirated and the cells were rinsed three times with cold media. Cell-associated radioactivity was determined using a Packard Riastar gamma counter. The percent of bound radioligand was plotted against the increasing concentrations of the metallated conjugate to determine the IC₅₀ value. IC₅₀ values were determined by curve fitting using Prism Software (version 6.0). For the PSMA-positive assay, the binding affinity was measured using the N-acetylated-α-linked acidic dipeptidase (NAALADase) assay. […] (increasing concentrations 1×10⁻¹³-1×10⁻⁵ M) in 50 μL of Tris-HCl buffer (50 mM, pH=7.4) were incubated with LNCaP tissue culture homogenized cell membranes for a period of 45 min. Then, [N-acetyl aspartyl ³H-glutamate] was added to the reaction mixture and the solution was allowed to incubate for an additional 15 min at 37° C. The enzymatic reaction was stopped by addition of 50 μL of cold sodium phosphate buffer (0.1 M, pH=7.4). [N-acetyl aspartyl ³H-glutamate] and [³H-glutamate] were resolved by cation exchange chromatography using AG 50 W-X8 columns (200-400 mesh). Columns were pre-equilibrated with 0.2 M HCl prior to loading of the reaction mixture. Fractions containing [³H-glutamate] were eluted using 6 mL of 2 M HCl. Scintillation cocktail was added to each fraction and the amount of radioactivity in each was determined by liquid scintillation counting. The percent of bound radioligand was plotted against the increasing concentrations of the conjugate to determine the IC₅₀ value. IC₅₀ values were determined by curve fitting using Prism Software (version 6.0).

Assay [2] deals with T1, gastrin-releasing peptide receptor. Briefly: competitive displacement of 125I-[Tyr4]BBN on human prostate PC-3 cells (FIG. 2). Here is the method: as §1, with “6.0).” for “6.0). For the PSMA-positive assay, the binding affinity was measured using the N-acetylated-α-linked acidic dipeptidase (NAALADase) assay.”, “[N-acetyl aspartyl ³H-glutamate] and [³H-glutamate] were resolved by cation exchange chromatography using AG 50 W-X8 columns (200-400 mesh). Columns were pre-equilibrated with 0.2 M HCl prior to loading of the reaction mixture. Fractions containing [³H-glutamate] were eluted using 6 mL of 2 M HCl.” left out, “The percent of bound radioligand was plotted against the increasing concentrations of the conjugate to determine the IC₅₀ value.” left out

The target in assay [3] is prostate specific membrane antigen (human (human prostate LNCaP cells), UniProt Q04609 1-750). Briefly: cell-based or functional assay.
Sequence of prostate specific membrane antigen (Q04609 whole entry): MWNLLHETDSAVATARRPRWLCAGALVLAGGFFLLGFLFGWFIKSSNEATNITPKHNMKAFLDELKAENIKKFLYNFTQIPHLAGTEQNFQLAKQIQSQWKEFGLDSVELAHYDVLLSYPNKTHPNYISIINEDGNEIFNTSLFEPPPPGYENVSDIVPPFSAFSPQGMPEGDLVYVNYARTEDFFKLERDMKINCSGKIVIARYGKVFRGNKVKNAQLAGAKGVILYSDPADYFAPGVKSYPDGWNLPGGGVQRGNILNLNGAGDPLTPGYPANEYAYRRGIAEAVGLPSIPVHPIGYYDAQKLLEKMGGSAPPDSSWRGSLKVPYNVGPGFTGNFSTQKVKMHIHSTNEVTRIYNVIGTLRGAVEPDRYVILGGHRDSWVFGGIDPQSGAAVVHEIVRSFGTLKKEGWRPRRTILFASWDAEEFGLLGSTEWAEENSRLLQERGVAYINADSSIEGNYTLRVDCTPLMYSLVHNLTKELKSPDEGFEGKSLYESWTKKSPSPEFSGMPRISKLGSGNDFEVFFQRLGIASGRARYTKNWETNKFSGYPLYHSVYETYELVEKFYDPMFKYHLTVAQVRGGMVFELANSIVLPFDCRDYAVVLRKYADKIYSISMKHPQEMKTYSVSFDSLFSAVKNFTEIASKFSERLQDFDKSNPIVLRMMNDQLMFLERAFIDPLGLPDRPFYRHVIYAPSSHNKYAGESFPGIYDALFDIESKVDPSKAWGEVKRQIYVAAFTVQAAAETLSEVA

Square brackets hold non-standard residues; d marks the D form. * marks the point of attachment. DUPA = PSMA-binding small-molecule urea, O=C(O)CC[C@H](NC(=O)N[C@@H](CCC(=O)*)C(=O)O)C(=O)O; DOTA = O=C(O)CN1CCN(CC(=O)O)CCN(CC(=O)*)CCN(CC(=O)O)CC1; Sta = CC(C)C[C@H](N)[C@@H](O)CC(=O)O; 4Abz = Nc1ccc(C(=O)O)cc1; Ahx = NCCCCCC(=O)O; Ava = NCCCCC(=O)O

T1 sequence (P30550 whole entry): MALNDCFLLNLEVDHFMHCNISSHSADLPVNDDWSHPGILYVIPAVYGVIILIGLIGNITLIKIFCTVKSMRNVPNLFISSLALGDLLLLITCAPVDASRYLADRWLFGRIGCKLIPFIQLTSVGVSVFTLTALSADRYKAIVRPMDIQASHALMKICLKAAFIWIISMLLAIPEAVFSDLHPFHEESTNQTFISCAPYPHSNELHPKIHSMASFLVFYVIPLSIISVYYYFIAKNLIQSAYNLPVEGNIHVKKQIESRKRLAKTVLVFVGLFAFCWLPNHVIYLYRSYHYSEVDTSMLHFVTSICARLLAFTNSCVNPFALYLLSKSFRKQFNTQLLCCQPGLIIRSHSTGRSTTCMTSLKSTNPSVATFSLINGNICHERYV

B1: [DUPA-6-Ahx-Lys(DOTA)-6-Ahx-RM2] (peptide)
peptide: {DUPA-Ahx}-K(DOTA)[Ahx][dF]QWAVGH[Sta]L-NH2
SMILES: CC(C)C[C@H](NC(=O)C[C@H](O)[C@H](CC(C)C)NC(=O)[C@H](Cc1c[nH]cn1)NC(=O)CNC(=O)[C@@H](NC(=O)[C@H](C)NC(=O)[C@H](Cc1c[nH]c2ccccc12)NC(=O)[C@H](CCC(N)=O)NC(=O)[C@@H](Cc1ccccc1)NC(=O)CCCCCNC(=O)[C@H](CCCCNC(=O)CN1CCN(CC(=O)O)CCN(CC(=O)O)CCN(CC(=O)O)CC1)NC(=O)CCCCCNC(=O)CC[C@H](NC(=O)N[C@@H](CCC(=O)O)C(=O)O)C(=O)O)C(C)C)C(N)=O
notes: Unmetallated bivalent conjugate; also called [DUPA-6-Ahx-[DOTA]-6-Ahx-RM2]; [DUPA-6-Ahx-Lys[DOTA]-X-RM2], X=6-Ahx
B1: the concentration for half-maximal inhibition (IC50) in assay [1] stood at 3.85 nM; in assay [2] it was 3.99 nM.

B2: [DUPA-6-Ahx-[DOTA]-AMBA-RM2] (peptide)
peptide: {DUPA-Ahx}-K(DOTA)[4Abz][dF]QWAVGH[Sta]L-NH2
notes: Unmetallated bivalent conjugate; also called [DUPA-6-Ahx-Lys[DOTA]-X-RM2], X=AMBA
For the molecule B2, the half-maximal inhibitory concentration (IC50) in assay [1] stood at 5.27 nM.

B3: [DUPA-6-Ahx-[DOTA]-5-Ava-RM2] (peptide)
peptide: {DUPA-Ahx}-K(DOTA)[Ava][dF]QWAVGH[Sta]L-NH2
notes: Unmetallated bivalent conjugate; also called [DUPA-6-Ahx-Lys[DOTA]-X-RM2], X=5-Ava; [DUPA-6-Ahx-Lys(DOTA)-X-RM2] formula (I), X=5-aminovaleric acid
For B3, the “IC50 LNCaP cells (NAALADase assay, [N-acetyl aspartyl 3H-glutamate] substrate, LNCaP homogenized cell membranes)” value (shortened to “IC50 LNCaP cells”) in assay [3] is 11.2 nM. Further, the IC50 in assay [1] was 5.14 nM.

On to {DUPA-Ahx}-K(DOTA)[4Abz][dF]QWAVGH[Sta]L-NH2 (also: DOTA complexed with natural indium) [[DUPA-6-Ahx-[^natIn-DOTA-AMBA-RM2]], for which, in assay [3], the “IC50 LNCaP cells” value was 14.9 nM.

{DUPA-Ahx}-K(DOTA)[Ava][dF]QWAVGH[Sta]L-NH2 (also: DOTA complexed with natural indium) [[DUPA-6-Ahx-[^natIn-DOTA]-5-Ava- RM2]]: the “IC50 LNCaP cells” value in assay [3] was 14.4 nM.
